Data as given in article PMC5879659 (Proceedings of the National Academy of Sciences of the …, 2018).
Square brackets hold non-standard residues; d marks the D form. Ends that are not written are not given here. Hyp = O=C(O)[C@@H]1C[C@@H](O)CN1

Biological target: T1, HAESA LRR ectodomain (Arabidopsis thaliana, UniProt P47735 15-621)
T1 sequence (looked up): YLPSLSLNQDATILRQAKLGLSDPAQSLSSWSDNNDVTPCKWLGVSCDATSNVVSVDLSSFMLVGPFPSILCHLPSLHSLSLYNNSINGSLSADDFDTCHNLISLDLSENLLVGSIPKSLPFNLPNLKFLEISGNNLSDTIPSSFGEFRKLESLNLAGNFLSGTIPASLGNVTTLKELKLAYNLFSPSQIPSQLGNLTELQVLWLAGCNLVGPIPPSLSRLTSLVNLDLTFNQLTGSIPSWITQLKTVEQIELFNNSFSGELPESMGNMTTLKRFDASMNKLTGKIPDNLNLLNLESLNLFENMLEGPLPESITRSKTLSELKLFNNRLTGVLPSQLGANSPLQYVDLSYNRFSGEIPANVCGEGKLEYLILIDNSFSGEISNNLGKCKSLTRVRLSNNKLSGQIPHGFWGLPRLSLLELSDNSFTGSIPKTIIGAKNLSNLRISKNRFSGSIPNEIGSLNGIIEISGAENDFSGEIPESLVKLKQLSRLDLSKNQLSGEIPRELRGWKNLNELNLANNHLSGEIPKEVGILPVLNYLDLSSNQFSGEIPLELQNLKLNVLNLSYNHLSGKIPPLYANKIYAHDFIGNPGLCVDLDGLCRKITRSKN
Assay: grating-coupled interferometry

- Kd: ~30 µM
- koff: ~2 s⁻¹
- kon: ~60000 M⁻¹ s⁻¹
Binder: YVPIPPSA[Hyp]SKRHN [INFLORESCENCE DEFICIENT IN ABSCISSION (IDA) peptide, Y-IDA]
